Data on four molecules can be found in publication PMC7480108.

For assay [1], the target named is GST-FGD1^18-335 (UniProt P52734). Put plainly: pull-down; GST-tagged FGD1 fragment (2 µM) immobilised on Glutathione Sepharose 4B beads, incubated with MDA-MB-231 cell lysates (untransfected or transfected with TKS5^GFP constructs) 2 h at 4°C; 50 mM Tris-HCl pH 7.5, 150 mM NaCl, 0.5 mM EDTA, 10 mM MgCl2, 10% glycerol, 0.7% NP-40; immunoblotting.
Assay [2] deals with endogenous FGD1 (faciogenital dysplasia protein 1) (UniProt P98174). Description: co-immunoprecipitation (anti-GFP nanobody, GFP-Trap) with FGD1 immunoblot. The conditions noted are these: lysates of MDA-MB-231 cells; 1% of total lysate loaded as input; parent: 100. (In general: Immunoblotting shows a protein as a band on a membrane.)
For assay [3], the target named is TKS5^GFPW1092A (human). Put plainly: co-IP; GFP-Trap (anti-GFP nanobody beads) from NP-40 lysates of MDA-MB-231 cells expressing GFP-tagged constructs, 1 h 4°C; immunoblotting of bound proteins.

Sequence of UniProt P52734 (P52734 18-335): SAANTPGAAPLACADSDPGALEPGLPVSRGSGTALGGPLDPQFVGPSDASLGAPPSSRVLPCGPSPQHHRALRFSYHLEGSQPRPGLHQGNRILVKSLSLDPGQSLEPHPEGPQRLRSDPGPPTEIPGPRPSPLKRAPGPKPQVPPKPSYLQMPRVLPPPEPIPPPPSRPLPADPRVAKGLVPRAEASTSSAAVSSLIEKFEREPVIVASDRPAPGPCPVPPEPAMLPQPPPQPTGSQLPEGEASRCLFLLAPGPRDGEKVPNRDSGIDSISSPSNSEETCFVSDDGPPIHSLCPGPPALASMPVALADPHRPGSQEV

Turning to TKS5^GFP (natural protein), the percent of the input pulled down (% of the input) in assay [1] was found to be 1.35. Consider TKS5^GFP W861A, for which the percent of parent (% of wild-type TKS5) in assay [2] came to 91. The molecule TKS5_324-1118^GFP (domain or fragment) had a percent of the input pulled down (% of the input) in assay [1] of 2.85.

B1: endogenous FGD1 (faciogenital dysplasia protein 1) (natural protein)
chain: MHGHRAPGGAGPSEPEHPATNPPGAAPPACADSDPGASEPGLLARRGSGSALGGPLDPQFVGPSDTSLGAAPGHRVLPCGPSPQHHRALRFSYHLEGSQPRPGLHQGNRILVKSLSLDPGQSLEPHPEGPQRLRSDPGPPTETPSQRPSPLKRAPGPKPQVPPKPSYLQMPRMPPPLEPIPPPPSRPLPADPRVAKGLAPRAEASPSSAAVSSLIEKFEREPVIVASDRPVPGPSPGPPEPVMLPQPTSQPPVPQLPEGEASRCLFLLAPGPRDGEKVPNRDSGIDSISSPSNSEETCFVSDDGPPSHSLCPGPPALASVPVALADPHRPGSQEVDSDLEEEDDEEEEEEKDREIPVPLMERQESVELTVQQKVFHIANELLQTEKAYVSRLHLLDQVFCARLLEEARNRSSFPADVVHGIFSNICSIYCFHQQFLLPELEKRMEEWDRYPRIGDILQKLAPFLKMYGEYVKNFDRAVELVNTWTERSTQFKVIIHEVQKEEACGNLTLQHHMLEPVQRIPRYELLLKDYLLKLPHGSPDSKDAQKSLELIATAAEHSNAAIRKMERMHKLLKVYELLGGEEDIVSPTKELIKEGHILKLSAKNGTTQDRYLILFNDRLLYCVPRLRLLGQKFSVRARIDVDGMELKESSNLNLPRTFLVSGKQRSLELQARTEEEKKDWVQAINSTLLKHEQTLETFKLLNSTNREDEDTPPNSPNVDLGKRAPTPIREKEVTMCMRCQEPFNSITKRRHHCKACGHVVCGKCSEFRARLVYDNNRSNRVCTDCYVALHGVPGSSPACSQHTPQRRRSILEKQASVAAENSVICSFLHYMEKGGKGWHKAWFVVPENEPLVLYIYGAPQDVKAQRSLPLIGFEVGPPEAGERPDRRHVFKITQSHLSWYFSPETEELQRRWMAVLGRAGRGDTFCPGPTLSEDREMEEAPVAALGATAEPPESPQTRDKT
For the molecule B1, the percent of the wild-type TKS5 binding capacity (% of wild type) in assay [3] was found to be 10.
